The values that follow are results of earlier work, collected in article PMC2662774.

For orientation: Kd means the free concentration of one partner at which half of the binding sites on the other are occupied at equilibrium, for simple one-to-one binding.

In data set [1] the target is CXCR4 1-38 (sY21 P38) 1-38 (Homo sapiens) (UniProt P61073). Put plainly: NMR.
Data set [2] concerns the target CXCR4 sY21 P38 peptide 1-38 (Homo sapiens) (UniProt P61073). Put plainly: NMR titration.

Chain of SDF-1α (P48061 24-88): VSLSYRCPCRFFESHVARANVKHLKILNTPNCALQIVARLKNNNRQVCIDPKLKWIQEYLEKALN

Consider SDF-1α (from UniProt P48061), for which the Kd in data set [1] and in data set [2] was 1300 nM each time.
